Positions count from the first letter of the chain named.
B1: 428 (protein)
chain: SAAITQEGAAPAAMLHPEKWPRPATQRLIDPAVEKRVDALLKQLSVEEKVGQVIQGDIGTITPEDLRKYPLGSILAGGDSGPNGDDRAPPKEWLDLADAFYRVSLEKRPGHTPIPVLFGIDAVHGHNNIGSATIFPHNIALGMTRDPELLRRIGEVTAEEMAATGIDWTFAPALSVPRDDRWGRTYEGFSEDPEIVASYSAAIVEGFQGKYGSKDFMAPGRAVACAKHFLADGGTDQGRDQGDARISEDELIRIHNAGYPPAIDAGVLTVMASFSSWQGIKHHGHKQLLTDVLKGQMGFNGFIVGDWNAHDQVPGCTKFNCPTSLIAGLDMYMAADSWKQLYENTLAQVKDGTIPMARLDDAVRRILRVKVLAGLFEKPAPKDRPGLPGLETLGSPEHRTVGREAVRKSLVLLKNDKGTLPLSPKARVLVAGDGADNIGKQSGGWTISWQGTGNRNDEFPGATSILGGIRDAVADAGGSVEFDVAGQYKTKPDVAIVVFGEEPYAEFQGDVETLEYQPDQKQDLTLLKKLKDQGIPVVAVFLSGRPMWVNPELNASDAFVAAWLPGTEGGGVADVLFTDKAGKVQHDFAGKLSYSWPRTAAQTTVNRGDADYNPLFAYGYGLTYKDKSKVGTLPEESGVPAEARQNAGIYFRAGALRLPGRFL
modifications: truncated; signal peptide F-10T
B2: 434 (protein)
chain: B1 chain with A13P, P177V, I203Y, E502N, Q508R
modifications: truncated; signal peptide F-10T
B3: 393 (protein)
chain: B1 chain with A3R, I4S, T400A, Q508R
modifications: truncated; signal peptide F-10T
B4: 431 (protein)
chain: B1 chain with A13P, P109D, T400A, Q508R, T525S
modifications: truncated; signal peptide F-10T
B5: 409 (protein)
chain: B1 chain with P109D, P147T, T400A, Q508R, T525S
modifications: truncated; signal peptide F-10T
B6: 410 (protein)
chain: B1 chain with T400A, E502N, Q508R, T525S
modifications: truncated; signal peptide F-10T
B7: 429 (protein)
chain: B1 chain with A13P, P147T, P177V, I203Y, T400A, Q508R, H586Y
modifications: truncated; signal peptide F-10T
B8: 398 (protein)
chain: B1 chain with A3R, S213T, T400A, Q508R
modifications: truncated; signal peptide F-10T
B9: 433 (protein)
chain: B1 chain with A3R, T400A, Q508R
modifications: truncated; signal peptide F-10T
B10: 400 (protein)
chain: B1 chain with P177V, I203Y, M356T, T400A, Q508R, N646K
modifications: truncated; signal peptide F-10T
B11: 395 (protein)
chain: B1 chain with A3R, I61V, T400A, Q508R
modifications: truncated; signal peptide F-10T
B12: 403 (protein)
chain: B1 chain with A13P, P109D, T400A, Q508R
modifications: truncated; signal peptide F-10T
B13: 404 (protein)
chain: B1 chain with A13P, P109D, N128K, T400A, Q508R, P597A
modifications: truncated; signal peptide F-10T
B14: 405 (protein)
chain: B1 chain with A13P, Q508R, H586Y
modifications: truncated; signal peptide F-10T
B15: 408 (protein)
chain: B1 chain with A13P, P147T, A226G, T400A, Q508R, H586Y
modifications: truncated; signal peptide F-10T
B16: 402 (protein)
chain: B1 chain with A3R, A13P, P147T, I203Y, T400A, Q508R, T525S, H586Y
modifications: truncated; signal peptide F-10T, K-21R
B17: 411 (protein)
chain: B1 chain with L372S, T400A, Q508R
modifications: truncated; signal peptide F-10T
B18: 397 (protein)
chain: B1 chain with A3R, M161V, P177V, I203Y, A222I, D383G, T400A, Q508R
modifications: truncated; signal peptide F-10T
B19: 412 (protein)
chain: B1 chain with T400A, E502N
modifications: truncated; signal peptide F-10T
B20: 399 (protein)
chain: B1 chain with A3R, P109D, M356T, T400A, Q508R
modifications: truncated; signal peptide F-10T
B21: 430 (protein)
chain: B1 chain with P109D, T400A, Q508R
modifications: truncated; signal peptide F-10T
B22: 396 (protein)
chain: B1 chain with I4S, T400A, Q508R, A601V
modifications: truncated; signal peptide F-10T
B23: 406 (protein)
chain: B1 chain with A3R, A13P, P147T, E159G, T400A, Q508R
modifications: truncated; signal peptide F-10T
B24: 401 (protein)
chain: B1 chain with T25A, N128H, I203Y, T400A, Q508R, T525S
modifications: truncated; signal peptide F-10T
B25: 432 (protein)
chain: B1 chain with A3R, P147T, I203Y, T400A, E502N, Q508R, H586Y
modifications: truncated; signal peptide F-10T, I-14V
B26: 407 (protein)
chain: B1 chain with P109D, P147T, T400A, E502N, Q508R, H586Y
modifications: truncated; signal peptide F-10T
B27: 215 (protein)
chain: STAIAQEGAPPAAILHPEKWPRPATQRLIDPAVEKRVDALLKQLSVEEKVGQVIQGDIGTITPEDLRKYPLGSILAGGDSGPNGDDRAPPKEWLDLADAFYRVSLEKRPGHTPIPVLFGIDAVHGHGNIGSATIFPHNIALGMTRDPELLRRIGEVTAEEMAATGIDWTFAPALSVVRDDRWGRTYEGFSEDPEIVASYSAAIVEGVQGKYGSKDFMAPGRIVASAKHFLADGGTDQGRDQGDARISEDELIRIHNAGYPPAIDAGVLTVMASFSSWQGIKHHGHKQLLTDVLKGQMGFNGFIVGDWNAHDQVPGCTKFNCPTSLIAGLDMYMAADSWKQLYENTLAQVKDGTIPMARLDDAVRRILRVKVLAGLFEKPAPKDRPGLPGLETLGSPEHRAVGREAVRKSLVLLKNDKGTLPLSPKARVLVAGDGADNIGKQSGGWTISWQGTGNRNDEFPGATSILGGIRDAVADAGGSVEFDVAGQYKTKPDVAIVVFGEEPYAEFQGDVETLEYQPDQKQDLALLKKLKDQGIPVVAVFLSGRPMWVNPELNASDAFVAAWLPGTEGGGVADVLFTDKAGKVQHDFAGKLSYSWPRTAAQTTVNRGDADYNPLFAYGYGLTYKDKSKVGTLPEESGVP
B28: 217 (protein)
chain: B27 chain with P10S
B29: 222 (protein)
chain: B27 chain with A5T, P10A
B30: 216 (protein)
chain: B27 chain with P10A, I14T

Test: High throughput cellobiose assay: fold improvement in cellobiase activity of CelA variants over a control enzyme (Tables 2A-2D, 3, 5, 6, 7)
Format: biochemical
Details: 3.3 g/l cellobiose; for Fold Improvement over Control Variant: 65° C. and pH 5 (incubation overnight), relative to Control #5, Variant No. 366 (SEQ ID NO: 9); for Fold improvement over Control Variant No. 94 from Table 2B: 55° C. and pH 5.3 (incubation overnight)

Molecule | Fold Improvement over Control Variant | Fold improvement over Control Variant No. 94 from Table 2B
B1 | ++ (++ = 1.1 to 2.0 fold improvement over control Variant No. 366) | –
B2 | ++ (++ = 1.1 to 2.0 fold improvement over control Variant No. 366) | –
B3 | ++ (++ = 1.1 to 2.0 fold improvement over control Variant No. 366) | –
B4 | ++ (++ = 1.1 to 2.0 fold improvement over control Variant No. 366) | –
B5 | +++ (+++ = 2.1 to 3.0 fold improvement over control Variant No. 366) | –
B6 | +++ (+++ = 2.1 to 3.0 fold improvement over control Variant No. 366) | –
B7 | ++ (++ = 1.1 to 2.0 fold improvement over control Variant No. 366) | –
B8 | ++ (++ = 1.1 to 2.0 fold improvement over control Variant No. 366) | –
B9 | ++ (++ = 1.1 to 2.0 fold improvement over control Variant No. 366) | –
B10 | ++ (++ = 1.1 to 2.0 fold improvement over control Variant No. 366) | –
B11 | ++ (++ = 1.1 to 2.0 fold improvement over control Variant No. 366) | –
B12 | ++ (++ = 1.1 to 2.0 fold improvement over control Variant No. 366) | –
B13 | ++ (++ = 1.1 to 2.0 fold improvement over control Variant No. 366) | –
B14 | ++ (++ = 1.1 to 2.0 fold improvement over control Variant No. 366) | –
B15 | +++ (+++ = 2.1 to 3.0 fold improvement over control Variant No. 366) | –
B16 | ++ (++ = 1.1 to 2.0 fold improvement over control Variant No. 366) | –
B17 | ++ (++ = 1.1 to 2.0 fold improvement over control Variant No. 366) | –
B18 | ++ (++ = 1.1 to 2.0 fold improvement over control Variant No. 366) | –
B19 | +++ (+++ = 2.1 to 3.0 fold improvement over control Variant No. 366) | –
B20 | ++ (++ = 1.1 to 2.0 fold improvement over control Variant No. 366) | –
B21 | ++ (++ = 1.1 to 2.0 fold improvement over control Variant No. 366) | –
B22 | ++ (++ = 1.1 to 2.0 fold improvement over control Variant No. 366) | –
B23 | ++ (++ = 1.1 to 2.0 fold improvement over control Variant No. 366) | –
B24 | ++ (++ = 1.1 to 2.0 fold improvement over control Variant No. 366) | –
B25 | ++ (++ = 1.1 to 2.0 fold improvement over control Variant No. 366) | –
B26 | +++ (+++ = 2.1 to 3.0 fold improvement over control Variant No. 366) | –
B27 | – | ++++ (++++ = 1.1 to 1.5 fold improvement over Control No. 3, Variant No. 94)
B28 | – | ++++ (++++ = 1.1 to 1.5 fold improvement over Control No. 3, Variant No. 94)
B29 | – | ++++ (++++ = 1.1 to 1.5 fold improvement over Control No. 3, Variant No. 94)
B30 | – | ++++ (++++ = 1.1 to 1.5 fold improvement over Control No. 3, Variant No. 94)
